Measured values reported in patent US20170088602A1 (Bristol-Myers Squibb, published 2017).
Read-outs that look alike come from different tables or passages of the source.

T1: human myostatin (mature, recombinant; R&D Systems) (human, UniProt O14793 267-375)
T1 sequence: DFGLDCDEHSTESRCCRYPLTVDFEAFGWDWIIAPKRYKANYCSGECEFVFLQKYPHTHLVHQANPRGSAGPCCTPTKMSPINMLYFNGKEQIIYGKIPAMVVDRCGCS

T2: human BMP-11 (GDF-11; R&D Systems) (human, UniProt O95390 299-407)
T2 sequence (looked up): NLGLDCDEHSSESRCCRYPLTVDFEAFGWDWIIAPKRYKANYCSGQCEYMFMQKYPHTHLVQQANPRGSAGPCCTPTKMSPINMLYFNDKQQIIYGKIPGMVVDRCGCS

T3: human Activin A (R&D Systems) (human, UniProt P08476 311-426)
T3 sequence (looked up): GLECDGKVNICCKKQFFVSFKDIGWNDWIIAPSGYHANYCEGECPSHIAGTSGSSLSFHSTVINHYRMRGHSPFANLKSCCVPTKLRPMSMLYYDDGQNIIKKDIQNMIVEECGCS


Key:
[1] = biological target: T1, human myostatin (mature, recombinant; …); assay: cell-based or functional assay
[2] = biological target: T2, human BMP-11 (GDF-11; R&D Systems); assay: cell-based or functional assay
[3] = biological target: T3, human Activin A (R&D Systems); assay: cell-based or functional assay
[4] = biological target: T1, human myostatin (mature, recombinant; …); assay: cell-based or functional assay; remark: listed apart in the source
[5] = biological target: T1, human myostatin (mature, recombinant; …); assay: cell-based or functional assay; remark: listed apart in the source
[6] = biological target: T1, human myostatin (mature, recombinant; …); assay: competitive HTRF, alanine scan
[7] = biological target: T1, human myostatin (mature, recombinant; …); assay: competitive HTRF (1889E01/myostatin/ActRIIb-Fc sandwich)
Source text: An HTRF assay was used to measure the binding affinities of anti-myostatin Adnectins to myostatin. […] The Eu-W 1024 labeled Streptavidin is used to bind biotinylated 1889E01. […] In the presence of a competitive Adnectin, the HTRF signal decreases.

[8] = biological target: T1, human myostatin (mature, recombinant; …); assay: cell-based or functional assay; remark: listed apart in the source
[9] = biological target: T2, human BMP-11 (GDF-11; R&D Systems); assay: cell-based or functional assay; remark: listed apart in the source
[10] = biological target: T3, human Activin A (R&D Systems); assay: cell-based or functional assay; remark: listed apart in the source
[11] = biological target: T1, human myostatin (mature, recombinant; …); assay: SPR format A, 25C
Source text: (§1) Anti-human Fc antibody (Biacore/GE) was immobilized on a Biacore CM5 chip via NHS/EDC coupling according to the manufacturer's instructions. […] A concentration range of anti-myostatin Adnectin was applied across all flow cells in HBSP running buffer. Regeneration of the chip surface between cycles was accomplished with two 30 second pulses of 3M MgCl₂. Kinetic traces of reference-subtracted sensorgrams were fit to a 1:1 binding model using Biaevaluation software.

[12] = biological target: T2, human BMP-11 (GDF-11; R&D Systems); assay: SPR format A, 25C
Source text: as §1

| Myostatin ARE-luc IC50 [5] | IC50 [6] | IC50 [7] | ARE-luciferase IC50 [8] | ARE-luciferase IC50 [9] | ARE-luciferase IC50 [10] | Binder | further results |
| --- | --- | --- | --- | --- | --- | --- | --- |
| 0.6 nM | 0.3 nM | 0.15 nM | – | – | – | 3116_A06 (designed binder, also called WT parent) MGVSDVPRDLEVVAATPTSLLISWSLPHQGKANYYRITYGETGGNSPVQEFTVPGRGVTATISGLKPGVDYTITVYAVTVTDTGYLKYKPISINYRTEIDKPSQHHHHHH | ARE-luciferase IC50 [1]: 0.14 nM; ARE-luciferase IC50 [2]: 13 nM; ARE-luciferase IC50 [3]: > 1000 nM; pSmad2 IC50, 4-point [4]: 0.27 nM |
| 1.5 nM | 0.7 nM | – | – | – | – | 3116_A06 Q29A (designed binder) MGVSDVPRDLEVVAATPTSLLISWSLPHAGKANYYRITYGETGGNSPVQEFTVPGRGVTATISGLKPGVDYTITVYAVTVTDTGYLKYKPISINYRTEIDKPSQHHHHHH | – |
| 2 nM | 0.8 nM | – | – | – | – | 3116_A06 K87A (designed binder) MGVSDVPRDLEVVAATPTSLLISWSLPHQGKANYYRITYGETGGNSPVQEFTVPGRGVTATISGLKPGVDYTITVYAVTVTDTGYLAYKPISINYRTEIDKPSQHHHHHH | – |
| 2.9 nM | 0.8 nM | – | – | – | – | 3116_A06 S25A (designed binder) MGVSDVPRDLEVVAATPTSLLISWALPHQGKANYYRITYGETGGNSPVQEFTVPGRGVTATISGLKPGVDYTITVYAVTVTDTGYLKYKPISINYRTEIDKPSQHHHHHH | – |
| 1.8 nM | 1.3 nM | – | – | – | – | 3116_A06 T83A (designed binder) MGVSDVPRDLEVVAATPTSLLISWSLPHQGKANYYRITYGETGGNSPVQEFTVPGRGVTATISGLKPGVDYTITVYAVTVTDAGYLKYKPISINYRTEIDKPSQHHHHHH | – |
| 3.3 nM | 1.6 nM | – | – | – | – | 3116_A06 V58A (designed binder) MGVSDVPRDLEVVAATPTSLLISWSLPHQGKANYYRITYGETGGNSPVQEFTVPGRGATATISGLKPGVDYTITVYAVTVTDTGYLKYKPISINYRTEIDKPSQHHHHHH | – |
| 1.6 nM | 0.7 nM | – | – | – | – | 3116_A06 K89A (designed binder) MGVSDVPRDLEVVAATPTSLLISWSLPHQGKANYYRITYGETGGNSPVQEFTVPGRGVTATISGLKPGVDYTITVYAVTVTDTGYLKYAPISINYRTEIDKPSQHHHHHH | – |
| – | – | – | 177 nM | 1410 nM | > 2000 nM | ATI-1106 [40K 2-branch PEG] (designed binder, 40K 2-branch PEG on the Cys of the GSGC tail) MGVSDVPRDLEVVAATPTSLLISWVSPRGRARYYRITYGETGGNSPVQEFTVPGRGSTATISGLKPGVDYTITVYAVTIYRDGMSHHDPISINYRTGSGCHHHHHH | – |
| – | – | 0.21 nM | 0.12 nM | 0.89 nM | 2000 nM | ATI-1266 [40K 2-branch PEG] (designed binder, 40K 2-branch PEG on the Cys of the EGSGC tail, cysteine mutant of 2525_D02) MGVSDVPRDLEVVAATPTSLLISWTLPHAGRAHYYRITYGETGGNSPVQEFTVPGRGVTATISGLKPGVDYTITVYAVTVTTTSVILYKPISINYRTEGSGCHHHHHH | Kd [11]: 0.76 nM; Kd [12]: 2.57 nM |
| – | – | 0.13 nM | 0.03 nM | 0.14 nM | 14 nM | ATI-1341 [20K Bis-PEG] (designed binder, two Adnectins joined through their tail Cys to the two ends of a 20 kDa bis-PEG, bivalent PEGylated form of the 2987_H07 cysteine mutant) MGVSDVPRDLEVVAATPTSLLISWTLPHAGRAHYYRITYGETGGNSPVQEFTVPGRGVTATISGLKPGVDYTITVYAVTVTTTKVIHYKPISINYRTEGSGCHHHHHH | – |
| – | – | 1.29 nM | 0.29 nM | 5.4 nM | > 1000 nM | ATI-1378 [40K 2-branch PEG] (designed binder, 40K 2-branch PEG on the Cys of the EGSGC tail, cysteine mutant of 3146_A08) MGVSDVPRDLEVVAATPTSLLISWSLPNPGNAHYYRITYGETGGNSPVQEFTVPGRGVTATISGLKPGVDYTITVYAVTVTDTGFITYKPISINYRTEGSGCHHHHHH | Kd [11]: 14.4 nM; Kd [12]: 59.6 nM |
